According to paper PMC10298926, “Biophysical Characterization of the Binding Mechanism between the MATH Domain of SPOP and Its Physiological Partners” (International Journal of Molecular Sciences, 2023):
Where no end group is shown, it is not given here. The star is where a group is joined. Dansyl = CN(C)c1cccc2c(S(=O)(=O)*)cccc12

Key:
[1] = substrate: SPOP MATH R71A (UniProt O43791); assay: stopped-flow fluorescence displacement; preincubated complex of MATH domain and dansylated peptide (both 8 µM) mixed with an excess of nondansylated peptide (50 µM); 298 K; same buffer as the binding experiments; single exponential decay gives koff
[2] = substrate: SPOP MATH K130A (UniProt O43791); assay: as above
[3] = substrate: SPOP MATH D131A (UniProt O43791); assay: as above
[4] = substrate: SPOP MATH Y88A (UniProt O43791); assay: as above
[5] = substrate: SPOP MATH F134A (UniProt O43791); assay: as above
[6] = substrate: SPOP MATH K135A (UniProt O43791); assay: as above
[7] = substrate: SPOP MATH Y124A (UniProt O43791); assay: as above
[8] = molecular target: engineered MATH domain of SPOP (Speckle-type POZ protein), residues 1-182, cysteine residues substituted to serine (UniProt O43791); assay: as above
[9] = substrate: SPOP MATH R71A (UniProt O43791); assay: stopped-flow fluorescence binding kinetics; pseudo-first-order; 2 µM MATH mixed with dansylated peptide, 2 to 10 µM Puc and MacroH2A, 2 to 40 µM PTEN; excitation 280 nm; 298 K; kobs against peptide concentration fitted to a line, kon from the slope
[10] = substrate: SPOP MATH K130A (UniProt O43791); assay: as above
[11] = substrate: SPOP MATH D131A (UniProt O43791); assay: as above
[12] = substrate: SPOP MATH Y88A (UniProt O43791); assay: as above
[13] = substrate: SPOP MATH F134A (UniProt O43791); assay: as above
[14] = substrate: SPOP MATH K135A (UniProt O43791); assay: as above
[15] = substrate: SPOP MATH Y124A (UniProt O43791); assay: as above
[16] = molecular target: engineered MATH domain of SPOP (Speckle-type POZ protein), residues 1-182, cysteine residues substituted to serine (UniProt O43791); assay: stopped-flow fluorescence binding kinetics + other: stopped-flow fluorescence displacement; KD calculated by combining kon of the pseudo-first-order plots with koff of the displacement experiments; 298 K
[17] = molecular target: engineered MATH domain of SPOP (Speckle-type POZ protein), residues 1-182, cysteine residues substituted to serine (UniProt O43791); assay: other fluorescence titration; equilibrium; FRET from the tryptophans of SPOP MATH (excited at 280 nm, emission 300-400 nm) to the dansyl of the peptide; MATH at constant concentration (2 µM in the methods, 1 µM in the results), dansylated peptide 0 to 40 µM; 298 K; hyperbolic fit
[18] = molecular target: engineered MATH domain of SPOP (Speckle-type POZ protein), residues 1-182, cysteine residues substituted to serine (UniProt O43791); assay: stopped-flow fluorescence binding kinetics; pseudo-first-order; 2 µM MATH mixed with dansylated peptide, 2 to 10 µM Puc and MacroH2A, 2 to 40 µM PTEN; excitation 280 nm; 298 K; kobs against peptide concentration fitted to a line, kon from the slope

Dansyl-DEVTSTTSSS [dansylated peptide mimicking Puc (region 96-105)]
koff [1]: 34 s⁻¹
koff [2]: 123 s⁻¹
koff [3]: 241 s⁻¹
koff [4]: 302 s⁻¹
koff [5]: 15 s⁻¹
koff [6]: 45.2 s⁻¹
koff [7]: 78 s⁻¹
koff [8]: 26.1 s⁻¹
kon [9]: 8.8e+06 M⁻¹ s⁻¹
kon [10]: 1.3e+07 M⁻¹ s⁻¹
kon [11]: 1.82e+07 M⁻¹ s⁻¹
kon [12]: 1.44e+07 M⁻¹ s⁻¹
kon [13]: 9.4e+06 M⁻¹ s⁻¹
kon [14]: 6.3e+06 M⁻¹ s⁻¹
kon [15]: 6.71e+06 M⁻¹ s⁻¹
Kd [16]: 1400 nM
Kd [17]: 1400 nM
kon [18]: 1.9e+07 M⁻¹ s⁻¹
